This note sets out measurements from patent US20220242962A1 (APTEVO RESEARCH AND DEVELOPMENT, published 2022).

Positions count from the first letter of the chain named. In names and notes the source's numbering stands. Read-outs that look alike come from different tables or passages of the source.

In one assay the target is T1, Human OX40 ECD-AFH (human).
T1 construct: ECD'; entry includes the C-terminal tags; also called OXF003; Human OX40 ECD-avi-flag-his
T1 chain: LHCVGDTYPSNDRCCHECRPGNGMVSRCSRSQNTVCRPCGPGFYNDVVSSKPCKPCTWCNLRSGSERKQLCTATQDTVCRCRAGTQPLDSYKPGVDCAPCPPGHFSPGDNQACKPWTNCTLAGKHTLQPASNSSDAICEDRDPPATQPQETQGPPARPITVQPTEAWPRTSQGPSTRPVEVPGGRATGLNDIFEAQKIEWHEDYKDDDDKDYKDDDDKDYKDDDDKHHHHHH
The assay can be described thus: SPR (Biacore 8K), construct captured, monovalent ECD.

A further assay concerns the target T2, Cyno OX40-AFH (cynomolgus monkey).
T2 construct: entry includes the tags; also called OXF005; cyno OX40 ECD
T2 chain: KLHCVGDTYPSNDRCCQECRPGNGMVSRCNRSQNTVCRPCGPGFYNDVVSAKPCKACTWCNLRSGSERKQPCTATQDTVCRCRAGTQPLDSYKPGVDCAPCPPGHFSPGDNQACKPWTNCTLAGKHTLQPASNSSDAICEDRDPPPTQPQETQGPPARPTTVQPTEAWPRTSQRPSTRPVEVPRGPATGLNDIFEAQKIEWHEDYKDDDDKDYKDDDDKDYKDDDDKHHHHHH
The description is as above.

The target in a further assay is T3, Cyno 4-1BB ECD-AFH (cynomolgus monkey).
T3 construct: entry includes the tags; also called FOB004; Cyno CD137 ECD-avi-flag-his
T3 chain: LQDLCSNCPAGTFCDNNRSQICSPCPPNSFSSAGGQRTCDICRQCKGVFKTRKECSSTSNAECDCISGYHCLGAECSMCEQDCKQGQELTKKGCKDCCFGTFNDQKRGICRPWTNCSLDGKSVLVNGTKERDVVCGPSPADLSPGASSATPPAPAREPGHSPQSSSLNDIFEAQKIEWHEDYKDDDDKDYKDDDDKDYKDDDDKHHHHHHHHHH
Described as above.

Assay [1] deals with T4, Full-length Cyno OX40 (cynomolgus monkey, UniProt P43489 29-277 (human entry)).
T4 construct: on CHO-K1SV cells; also called OXF004; cynomolgus OX40
T4 chain: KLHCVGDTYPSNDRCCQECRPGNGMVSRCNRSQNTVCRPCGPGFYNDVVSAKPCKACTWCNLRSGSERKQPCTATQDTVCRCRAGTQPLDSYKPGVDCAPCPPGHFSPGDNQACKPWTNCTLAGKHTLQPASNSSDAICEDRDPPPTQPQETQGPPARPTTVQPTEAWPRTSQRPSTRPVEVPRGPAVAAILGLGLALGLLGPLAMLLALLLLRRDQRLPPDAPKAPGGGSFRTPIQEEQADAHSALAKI
The assay can be described thus: flow cytometry on CHOK1SV cells transfected with cynomolgus OX40, goat anti-human Fc secondary antibody, MFI (Mean).

In a further assay the target is T5, Fc gamma receptor RI (human, UniProt P12314 16-288).
T5 construct: also called FcγRI
T5 sequence (P12314 16-288 limits assumed): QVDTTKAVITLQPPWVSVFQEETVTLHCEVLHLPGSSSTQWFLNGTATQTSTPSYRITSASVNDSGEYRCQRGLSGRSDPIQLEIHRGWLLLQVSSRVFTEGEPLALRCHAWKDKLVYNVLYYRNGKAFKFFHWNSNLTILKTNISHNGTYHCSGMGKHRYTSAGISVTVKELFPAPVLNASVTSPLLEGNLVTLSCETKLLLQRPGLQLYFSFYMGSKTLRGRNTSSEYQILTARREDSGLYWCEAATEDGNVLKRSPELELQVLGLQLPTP
The assay can be described thus: SPR, construct immobilized, receptor injected at 100 nM. As to the method: Fcγ receptor binding to bispecific proteins was measured by Surface Plasmon Resonance on a Biacore 8K instrument at room temperature. Bispecific proteins with modified Fc regions to reduce binding to Fcγ receptors were directly immobilized on the surface of a CM5 sensor chip to a surface density of 4000 RU. A bispecific ADAPTIR™ protein with a wild type Fc was similarly immobilized to the surface as a positive control and used as a comparator to evaluate the reduction in binding resulting from changes incorporated into the Fc region amino acid sequence. Fcγ receptors (purchased from R&D Systems) were diluted to either 100 nM (FcγRI) or 2 μM (all other Fcγ receptors) in HBS-EP+ buffer before injecting over the surface of the prepared sensor chip at 30 μL/min for 60 seconds. Maximum RU values during association phase of each injection were used to compare the extent of binding of the modified Fc to wild type value and are reported in Table 17 below.

For assay [2], the target named is T4, Full-length Cyno OX40. The assay can be described thus: flow cytometry on CHOK1SV cells transfected with cynomolgus OX40, goat anti-human Fc secondary antibody, MFI (Mean). As to the method: Serial dilutions of ADAPTIR™ constructs were incubated with transfected target cells and subsequently labelled with a fluorescently-conjugated goat-a-human Fc secondary antibody. […] (See Example 25.)

B1: FXX01066 (bispecific antibody)
chain: EVQLVQSGAEVKKPGASVKVSCKASGYTFTSYWMNWVRQAPGQGLEWMGNIYPSGGSTNYAQKFQGRVTMTVDTSTSTVYMELSSLRSEDTAVYYCASFSDGYYAYAMDYWGQGTLVTVSSGGGGSGGGGSGGGGSGGGGSEIVMTQSPATLSLSPGERATLSCRASQSVSSYLNWYQQKPGQAPRLLIYYASRRHTGIPARFSGSGSGTDFTLTISSLQPEDFAVYYCQQGYNLPYTFGQGTKVEIKEPKSSDKTHTCPPCPAPPAAAPSVFLFPPKPKDTLMISRTPEVTCVVVDVSHEDPEVKFNWYVDGVEVHNAKTKPREEQYNSTYRVVSVLTVLHQDWLNGKEYKCAVSNKALPAPIEKTISKAKGQPREPQVYTLPPSRDELTKNQVSLTCLVKGFYPSDIAVEWESNGQPENNYKTTPPVLDSDGSFFLYSKLTVDKSRWQQGNVFSCSVMHEALHNHYTQKSLSLSPGGGGSPSSYVLTQPPSVSVAPGQTARITCGGNNIGSKSVNWFQQKPGQAPVLVVYDDSGRPSGIPERFSGSTSGNTATLTISRVEAGDEADYYCQVWDSSSDHVVFGGGTKLTVLGGGGSGGGGSGGGGSGGGGSQVQLVESGGGVVQPGRSLRLSCAASGFTLSYYGMHWVRQAPGKGLEWVAAISHDGSDKYYADSVKGRFTISRDNSKNTLYLQMNSLRAEDTAVYYCSNDQFDPWGQGTLVTVSSR
notes: ADAPTIR scFv-Fc-scFv, anti-4-1BB (VH-VL) N-terminal, anti-OX40 C-terminal, PAA (del) Fc; also called FX01066
With B1, the results for the Kd with Human OX40 ECD-AFH, with Cyno OX40-AFH and with Cyno 4-1BB ECD-AFH were less than 1 nM, less than 1 nM and 92 nM, respectively. For the same molecule, the koff with Human OX40 ECD-AFH came out at 0.00027 s⁻¹; with Cyno OX40-AFH it was 0.00019 s⁻¹; in the assay with Cyno 4-1BB ECD-AFH, 0.0092 s⁻¹. The kon with Human OX40 ECD-AFH was found to be 1.1e+06 M⁻¹ s⁻¹; with Cyno OX40-AFH, 1.5e+06 M⁻¹ s⁻¹; in the assay with Cyno 4-1BB ECD-AFH, 100000 M⁻¹ s⁻¹. The “EC50 (read off the curve)” value with Full-length Cyno OX40 [1] is roughly 1 nM; with Full-length Cyno OX40 [2], roughly 2 nM. For the same molecule, the “Max RU value during association” value with Fc gamma receptor RI worked out at 0 RU.

B2: FXX01101 (bispecific antibody)
chain: B1 chain with T690R
notes: ADAPTIR anti-4-1BB (HL) x anti-OX40 with T86R; PAA (del) Fc; also called FX01101
On to B2, for which the Kd in the assay with Human OX40 ECD-AFH was less than 1 nM; with Cyno OX40-AFH, less than 1 nM; with Cyno 4-1BB ECD-AFH, 76 nM. For the same molecule, the off-rate (koff) with Human OX40 ECD-AFH came out at 0.00029 s⁻¹; in the assay with Cyno OX40-AFH, 0.00027 s⁻¹; with Cyno 4-1BB ECD-AFH it was 0.0077 s⁻¹. Moreover, the kon in the assay with Human OX40 ECD-AFH was found to be 980000 M⁻¹ s⁻¹; with Cyno OX40-AFH, 1.1e+06 M⁻¹ s⁻¹; in the assay with Cyno 4-1BB ECD-AFH, 100000 M⁻¹ s⁻¹. The “EC50 (read off the curve)” value with Full-length Cyno OX40 [1] is roughly 0.8 nM; with Full-length Cyno OX40 [2], 1 to 2 nM. Further, in the assay with Fc gamma receptor RI, the “Max RU value during association” value came to 0 RU.
